Target: T1, β-amyloid peptide 1-40 (UniProt P05067 672-711)
T1 construct: domain: beta amyloid peptide 1-40; Residues 1-40 are counted on Aβ, not on the APP entry; Coated after overnight incubation at 37 C (ELISA) or pre-aggregated for a week (ThT assay); also called Aβp 1-40; AβP 1-40
Test: ELISA, constant 10 µM Aβ 1-40 coated, 3.125-25 µM antibody; reference 37L
Experimental: Wells were washed and blocked with 3% milk powder in PBS for 1 hr at 37° C. […] The rest of the ELISA assay was performed as described above.

B1: 37H (single domain antibody, heavy chain variable domain of scFv RCK37) (other)
VH: MAHVQFVQSGGDLVKPGGSLKLSCAASGFTFSSYGMSWVRQTPDKRLEWVATISSGGSYTYYPDSVKGRFTISRDNAKNTLYLQMSSLKSEDTAMYYCARHNYGSSYPYAMDYWGQGTPVTVSA
notes: also called 37H nanobody; nanobody 37H; not shown: C-terminal His tag from the pET28/pET21 vector
With B1 the “fold stronger binding than 37L” value was 5 times.

Source: patent US20090186027A1 (RAMOT AT TEL AVIV UNIVERSITY, published 2009)
